Kd data for 3 molecules are collected here from article doi:10.1101/2024.04.26.591305 (2024).

This test addresses α-skeletal muscle actin filaments (rabbit) (rabbit, UniProt P68135 1-377).

MGVADLIKKFESI (domain or fragment) [L22 (LifeactΔC4-msfGFPΔN7)] yielded a Kd of 11.3 µM.

B1: U20 (msfGFPΔC10-Utr28-222) (domain or fragment)
chain: EHNDVQKKTFTKWINARFSKSGKPPINDMFTDLKDGRKLLDLLEGLTGTSLPKERGSTRVHALNNVNRVLQVLHQNNVELVNIGGTDIVDGNHKLTLGLLWSIILHWQVKDVMKDVMSDLQQTNSEKILLSWVRQTTRPYSQVNVLNFTTSWTDGLAFNAVLHRHKPDLFSWDKVVKMSPIERLEHAFSKAQTYL
Molecule B1 displayed a Kd of 13.2 µM.

Consider VADLIKKFESISKEE (domain or fragment) [L45 (msfGFPΔC9-LifeactΔN2)], for which binding was characterised by a dissociation constant (Kd) of 4.5 µM.

By Kd is commonly meant the concentration at which binding is half-saturated. Higher therefore signals weaker binding.
